Assay results as given in PMC8022922.

Target: AfMAT1-1-1_(78–235) (Aspergillus fumigatus)
Experiment: SEC

Question: With “AfMAT1-1-1_(78–235) (domain or fragment)” as the substance, how does the stoichiometry N read?
Answer: 2
